From patent US20080118498A1 (Eli Lilly, published 2008)

Columns and labels:
[1] = molecular target: T1, C8 acylated human ghrelin (1-28) (human, n-octanoyl group on the serine at position three (Ser3)); test: KinExA solution equilibrium; constant Fab, ghrelin titrated, free Fab captured on biotin-C8-ghrelin streptavidin beads
T1 construct: 28-residue peptide hormone; In the first KinExA experiment a biotinylated form was on the beads and the unlabelled peptide was titrated in solution; also called Human C8 ghrelin; human C8 acylated ghrelin (1-28)
Method: The KinExA 3000 instrument, manufactured by Sapidyne, is used to measure binding kinetics. Briefly, streptavidin is covalently coupled to azlactone beads. Biotinylated C8 acylated human ghrelin (1-28) is subsequently bound to these streptavidin beads. The binding of free anti-ghrelin Fab to the beads is detected on the instrument.
To measure Kds, individual tubes containing a constant concentration of 20-100 pM of Fab with decreasing serially diluted C8 acylated human ghrelin (1-28) are incubated for 18 h at 20° C. in 0.1% BSA, PBS. […] For example, clone 4a1 is used at a constant concentration of 20 pM and individual tubes are incubated with 0-20 nM of ghrelin. Incubations for other Fabs are set in a similar manner. After incubation, free Fab in each equilibrated sample is determined on the KinExA 3000 instrument according to the manufacturer's instructions. Kd values are determined using the KinExA 3000 software.

Human C10 ghrelin (1-28) [2] = molecular target: T2, Human C10 ghrelin (1-28) (human, n-decanoyl group on Ser3 (C10-acylated)); test: BIAcore SPR; Fab captured by goat anti-mouse kappa, ghrelin injected, n = 3
T2 construct: also called decanoyl ghrelin (1-28)
Method: (§1) The affinity (Kd) of humanized C2 anti-ghrelin Mabs is measured using a BIAcore® 2000 instrument containing a CM5 sensor chip. The BIAcore® utilizes the optical properties of surface plasmon resonance to detect alterations in protein concentration of interacting molecules within a dextran biosensor matrix. Except where noted, all reagents and materials are purchased from BIAcore® AB (Uppsala, Sweden). All measurements are performed at about 25° C. All samples containing either rat or human ghrelin (full length, C8- or C10-acylated, or desacylated) and anti-ghrelin Fab or Mab are diluted in HBS-EP buffer (150 mM sodium chloride, 3 mM EDTA, 0.005% (w/v) surfactant P-20, and 10 mM HEPES, pH 7.4). A capture antibody, goat anti-mouse kappa (Southern Biotechnology, Inc), or goat anti-mouse Fc gamma (Jackson ImmunoResearch), is immobilized onto flow cells using amine-coupling chemistry. Flow cells (1-4) are activated for 7 minutes with a 1:1 mixture of 0.1 M N-hydroxysuccinimide and 0.1 M 3-(N,N-dimethylamino)propyl-N-ethylcarbodiimide at a flow rate of 10 μl/min. The capture antibody, for example goat anti-mouse kappa, is diluted to 30 μg/mL in 10 mM sodium acetate, pH 4.5, and manually injected over all four flow cells at a flow rate of 10 μL/min. The surface density is monitored, and additional capture antibody is injected as needed to each individual cell until all flow cells reach a surface density of 4500-5000 response units (RU). Surfaces are blocked with a seven minute injection of 1 M ethanolamine-HCl, pH 8.5(10 μL/min). To ensure complete removal of any noncovalently bound capture antibody, 15 μL of 10 mM glycine, pH 1.5, are injected twice. Running buffer for kinetic experiments is HBS-EP buffer (150 mM sodium chloride, 3 mM EDTA, 0.005% (w/v) surfactant P-20, and 10 mM HEPES, pH 7.4). For C2_{—}4A1, 5A1, and 7A1, the antibody is directly coupled to a CM5 chip using the amine-coupling chemistry described above, aiming for a surface density of between 800-1000 RU. […]

[3] = molecular target: T1, C8 acylated human ghrelin (1-28); test: KinExA solution equilibrium; C8 ghrelin coupled to azlactone beads, n-curve analysis, n = 3
Method: (§2) Briefly, 10 μg human C8 acylated ghrelin (1-28) is covalently coupled to 50 mg azlactone beads (Sapidyne). […] For example, anti-ghrelin C2 murine Fab is used at a constant concentration of either 60, 600, or 6000 pM, and individual tubes are incubated with 0-60, 0-100, or 0-1000 nM of ghrelin, respectively. After the incubation, free Fab or Mab in each equilibrated sample is determined on the KinExA 3000 instrument according to the manufacturer's instructions. Kd values are assessed using the KinEkA 3000 n-curve analysis software.

[4] = molecular target: T1, C8 acylated human ghrelin (1-28); test: BIAcore SPR; Fab captured by goat anti-mouse kappa, ghrelin injected, n = 8
Method: as §1

[5] = molecular target: T3, Rat C8 ghrelin (28 amino acids, C8-acylated) (rat, UniProt Q9QYH7 24-51, C8-acylated (n-octanoyl; octanoylated at Ser3 as told for rat ghrelin in paragraph 40)); test: BIAcore SPR; Fab captured by goat anti-mouse kappa, ghrelin injected, n = 5
T3 construct: mature; the assay used the 28-residue peptide; also called C8-acylated rat ghrelin
T3 peptide (looked up): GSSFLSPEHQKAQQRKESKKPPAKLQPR
Method: as §1

[6] = molecular target: T1, C8 acylated human ghrelin (1-28); test: BIAcore SPR; Mab captured by goat anti-mouse kappa or anti-mouse Fc gamma, ghrelin injected, n = 11
Method: as §1

[7] = molecular target: T1, C8 acylated human ghrelin (1-28); test: KinExA solution equilibrium; C8 ghrelin coupled to azlactone beads, n-curve analysis, n = 2
Method: as §2

Human C10 ghrelin (1-28) [8] = molecular target: T2, Human C10 ghrelin (1-28); test: BIAcore SPR; Mab captured by goat anti-mouse kappa or anti-mouse Fc gamma, ghrelin injected, n = 6
Method: as §1

[9] = molecular target: T3, Rat C8 ghrelin (28 amino acids, …); test: BIAcore SPR; Mab captured by goat anti-mouse kappa or anti-mouse Fc gamma, ghrelin injected, n = 7
Method: as §1

[10] = molecular target: T1, C8 acylated human ghrelin (1-28); test: BIAcore SPR; Mab amine-coupled to CM5 chip, ghrelin injected, n = 2
Method: (§3) The affinity (Kd) of humanized C2 anti-ghrelin Mabs is measured using a BIAcore® 2000 instrument containing a CM5 sensor chip. The BIAcore® utilizes the optical properties of surface plasmon resonance to detect alterations in protein concentration of interacting molecules within a dextran biosensor matrix. Except where noted, all reagents and materials are purchased from BIAcore® AB (Uppsala, Sweden). All measurements are performed at about 25° C. All samples containing either rat or human ghrelin (full length, C8- or C10-acylated, or desacylated) and anti-ghrelin Fab or Mab are diluted in HBS-EP buffer (150 mM sodium chloride, 3 mM EDTA, 0.005% (w/v) surfactant P-20, and 10 mM HEPES, pH 7.4). A capture antibody, goat anti-mouse kappa (Southern Biotechnology, Inc), or goat anti-mouse Fc gamma (Jackson ImmunoResearch), is immobilized onto flow cells using amine-coupling chemistry. Flow cells (1-4) are activated for 7 minutes with a 1:1 mixture of 0.1 M N-hydroxysuccinimide and 0.1 M 3-(N,N-dimethylamino)propyl-N-ethylcarbodiimide at a flow rate of 10 μl/min. The capture antibody, for example goat anti-mouse kappa, is diluted to 30 μg/mL in 10 mM sodium acetate, pH 4.5, and manually injected over all four flow cells at a flow rate of 10 μL/min. The surface density is monitored, and additional capture antibody is injected as needed to each individual cell until all flow cells reach a surface density of 4500-5000 response units (RU). Surfaces are blocked with a seven minute injection of 1 M ethanolamine-HCl, pH 8.5(10 μL/min). To ensure complete removal of any noncovalently bound capture antibody, 15 μL of 10 mM glycine, pH 1.5, are injected twice. Running buffer for kinetic experiments is HBS-EP buffer (150 mM sodium chloride, 3 mM EDTA, 0.005% (w/v) surfactant P-20, and 10 mM HEPES, pH 7.4). For C2_{—}4A1, 5A1, and 7A1, the antibody is directly coupled to a CM5 chip using the amine-coupling chemistry described above, aiming for a surface density of between 800-1000 RU.
(§4) Collection of kinetic binding data is performed at maximum flow rate (100 μL/min) and a low surface density to minimize mass transport effects.

[11] = molecular target: T3, Rat C8 ghrelin (28 amino acids, …); test: as above
Method: as §3, §4

T2 sequence (peptide, as listed by the source): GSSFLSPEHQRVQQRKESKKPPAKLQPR

B1: C2 chimeric Fab (heavy and light chain variable regions of C2 murine Fab 1111 fused to human CH1 and CL domains) (Fab, V domains shown)
VH: EIQLQQSGAELMKPGASVKLSCKATGYIFTGYWIEWVKQRPGHGLEWIGEILPGSGSTNYNEKFKGKATFTADTSSNTANMQLSSLTTEDSAIYYCARYPQFRLRRERIAYWGQGTLVTVSV
VL: DLVLTQSPASLAVSLGQRATISCRASKSVSTSGYSYMHWYQQKPGQPPKLLIYLASNLESGVPARFSGSGSGTDFTLNIHPVEEEDAATYYCQHSRELPYTFGAGTKLELKR
- Kd [1]: 1.1 nM

B2: C2 murine Fab 1111 (Fab, V domains shown)
VH: EIQLQQSGAELMKPGASVKLSCKATGYIFTGYWIEWVKQRPGHGLEWIGEILPGSGSTNYNEKFKGKATFTADTSSNTANMQLSSLTTEDSAIYYCARYPQFRLRRERIAYWGQGTLVTVSV
VL: DLVLTQSPASLAVSLGQRATISCRASKSVSTSGYSYMHWYQQKPGQPPKLLIYLASNLESGVPARFSGSGSGTDFTLNIHPVEEEDAATYYCQHSRELPYTFGAGTKLELKR
notes: also called Anti-ghrelin C2 Fab (Fab1111)
- Kd (Human C10 ghrelin (1-28) [2]): 4.55 nM
- koff (Human C10 ghrelin (1-28) [2]): 0.0088 s⁻¹
- kon (Human C10 ghrelin (1-28) [2]): 2.1e+06 M⁻¹ s⁻¹
- Kd [3]: 1.03 nM
- Kd [4]: 0.953 nM
- koff [4]: 0.0016 s⁻¹
- kon [4]: 1.7e+06 M⁻¹ s⁻¹
- Kd [5]: 1.23 nM
- koff [5]: 0.0016 s⁻¹
- kon [5]: 1.4e+06 M⁻¹ s⁻¹

B3: Mab C2 (full murine sequence, i.e., Fab 1111 VH/VL and murine Fc) (antibody, V domains shown)
VH: EIQLQQSGAELMKPGASVKLSCKATGYIFTGYWIEWVKQRPGHGLEWIGEILPGSGSTNYNEKFKGKATFTADTSSNTANMQLSSLTTEDSAIYYCARYPQFRLRRERIAYWGQGTLVTVSV
VL: DLVLTQSPASLAVSLGQRATISCRASKSVSTSGYSYMHWYQQKPGQPPKLLIYLASNLESGVPARFSGSGSGTDFTLNIHPVEEEDAATYYCQHSRELPYTFGAGTKLELKR
notes: Full-length murine antibody with a kappa light chain (it was captured with anti-mouse kappa); also called Anti-ghrelin C2 Mab
- Kd [6]: 0.779 nM
- koff [6]: 0.0015 s⁻¹
- kon [6]: 2.4e+06 M⁻¹ s⁻¹
- Kd [7]: 1.44 nM
- Kd (Human C10 ghrelin (1-28) [8]): 4.1 nM
- koff (Human C10 ghrelin (1-28) [8]): 0.0092 s⁻¹
- kon (Human C10 ghrelin (1-28) [8]): 1.9e+06 M⁻¹ s⁻¹
- Kd [9]: 2.6 nM
- koff [9]: 0.0018 s⁻¹
- kon [9]: 800000 M⁻¹ s⁻¹

B4: Mab C2 (murine VH/VL Fab 1111 sequences with rat Fc chimera) (antibody, V domains shown)
VH: EIQLQQSGAELMKPGASVKLSCKATGYIFTGYWIEWVKQRPGHGLEWIGEILPGSGSTNYNEKFKGKATFTADTSSNTANMQLSSLTTEDSAIYYCARYPQFRLRRERIAYWGQGTLVTVSV
VL: DLVLTQSPASLAVSLGQRATISCRASKSVSTSGYSYMHWYQQKPGQPPKLLIYLASNLESGVPARFSGSGSGTDFTLNIHPVEEEDAATYYCQHSRELPYTFGAGTKLELKR
notes: Chimera with rat Fc
- Kd [10]: 0.363 nM
- koff [10]: 0.0028 s⁻¹
- kon [10]: 7.4e+06 M⁻¹ s⁻¹
- Kd [11]: 0.687 nM
- koff [11]: 0.0019 s⁻¹
- kon [11]: 3.3e+06 M⁻¹ s⁻¹
